Consider two molecules from publication PMC3923779, “Iron Acquisition in Bacillus cereus: The Roles of IlsA and Bacillibactin in Exogenous Ferritin Iron Mobilization” (PLoS Pathogens, 2014).

By stoichiometry N is commonly meant a count of units in the complex or per binding partner.

B1: IlsA (Iron-regulated leucine rich surface protein type A), recombinant, without signal peptide (natural protein, Bacillus cereus strain ATCC14579, UniProt Q81G77 29-760, looked up)
chain: ALKVEANQSVAAASDRTYDTEIKIYKDQKDEPSMVSQYIKDPKVTIAAGKKIVTVTMQDSDYFQYLRIEDKNQPGVFHDVKVLSEDKRKNGTKVVQFEIGEFEKKHNMQMHILIPAIGYDHKYQVQFEIKDPTVGNKETEKPDDNSNSGNTETDNPVDNQNMITDNKLRELVNKKVFNRKDLNTPITKEDLLQVKDLFLNTNEILDYSALKYMPNLKSLTVANAKIKDPSFFANLKQLNHLALRGNEFADVTPLVKMDNLESLDLSNNKITNVAPLTEMKNVKSLFLSGNQIEDVTALAKMEQLDYLNLANNKITNVAPLSNLKNVTYLTLAGNQIEDIKPLYTLPLKDLVLTRNKVKDLSGIDQLNQLQELWIGKNEITDVTPLSKMTQLKILNLPNNELKDITPLSSLVNLQKLDLEANYISDLSPVSNLKKLVFLSFVANEIRDVRPVIELSKTAYINVQNQKVFLEETEVNKEVKVPIYEKDGEISTKIRLKSDNGTYSNGVVKWSTPGEKVYEFGVKDPFADTGIFFTGSVIQNVVESKDGNTSKEDEKTEVVEFKDVPKGHWSEEAINYLAKEKLFIGYGNGEFGFGDNITRGQVALLIQRYLKLENNLEQKTAFTDTKGNMYETAIDAVVQAGIMTGYGNGMFRPDGVLTRYEMSVVLQRVFQLKENENSAENFKDVPNGHWAKGYVKALVDNKISKGDGEGNFLGDNFVTREQYAQFLYNAIKK
notes: IlsA of Bacillus cereus strain ATCC14579, NCBI gene number Bc1331; Holo form (hemin added until saturation of 80%) in the ITC; also called Holo-IlsA; full-length IlsA; source: E. coli C600 ΔhemA, purified (Bulk GST Purification Module, eluted with PreScission Protease); produced in apo-form, hemin added to reconstitute the holo-protein
B2: recombinant mouse H-chain ferritin (natural protein, UniProt P09528 1-182, looked up)
chain: MTTASPSQVRQNYHQDAEAAINRQINLELYASYVYLSMSCYFDRDDVALKNFAKYFLHQSHEEREHAEKLMKLQNQRGGRIFLQDIKKPDRDDWESGLNAMECALHLEKSVNQSLLELHKLATDKNDPHLCDFIETYYLSEQVKSIKELGDHVTNLRKMGAPEAGMAEYLFDKHTLGHGDES
notes: mouse ferritin H-chain, recombinant homopolymer; also called MoHF; recombinant mouse homopolymer H-chain; copies: 24

What all share (test): ITC; 16 injections of 3 µl of 229 µM holo-IlsA into the cell with 1 µM ferritin; 25°C; 50 mM Tris-HCl pH 7, 150 mM NaCl, 1 mM EDTA, 1 mM DTT; model of one set of independent binding sites; apparent values
Common to all, as to details: both partners purified

For assay [1], the target named is T1, recombinant human H-chain ferritin (human, UniProt P02794 1-183).
T1 construct: human ferritin H-chain, recombinant homopolymer of 24 H-subunits; loaded with 500 Fe/shell in the iron release assay; also called HuHF; holoHuHF; copies: 24

Assay [2] addresses B2.
For assay [3], the target named is T2, recombinant human L-chain ferritin (human, UniProt P02792 1-175).
T2 construct: human ferritin L-chain, recombinant homopolymer of 24 L-subunits; also called HuLF; recombinant human homopolymer L-chain; copies: 24

Assay [4] deals with T3, recombinant human heteropolymer H/L ferritin (human, UniProt P02794 1-183; P02792 1-175).
T3 construct: human ferritin H-chain in the recombinant heteropolymer; human ferritin L-chain in the recombinant heteropolymer; The results print ∼20 H-chains and 4 L-chains; also called HuH/LF; recombinant heteropolymer ferritin; copies: 20 + 4

The target of assay [5] is B1.

T2 sequence (P02792 whole entry): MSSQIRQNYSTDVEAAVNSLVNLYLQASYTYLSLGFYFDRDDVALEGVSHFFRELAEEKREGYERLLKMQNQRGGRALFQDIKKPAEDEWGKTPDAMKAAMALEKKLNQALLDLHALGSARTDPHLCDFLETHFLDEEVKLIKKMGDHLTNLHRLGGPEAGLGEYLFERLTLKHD
T1 sequence (P02794 whole entry): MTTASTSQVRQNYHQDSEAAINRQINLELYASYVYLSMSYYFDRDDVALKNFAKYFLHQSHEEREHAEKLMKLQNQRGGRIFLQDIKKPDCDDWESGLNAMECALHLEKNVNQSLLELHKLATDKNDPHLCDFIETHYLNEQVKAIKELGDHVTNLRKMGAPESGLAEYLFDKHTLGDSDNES
T3 sequence (P02794 whole entry, chain 1 of 2): as the sequence (P02794 whole entry) above
T3 sequence (P02792 whole entry, chain 2 of 2): as the sequence (P02792 whole entry) above

On to B1, for which the dH in assay [1] was -0.982 kcal/mol; in assay [2], -0.801 kcal/mol; in assay [3], -2.08 kcal/mol; in assay [4], -2.08 kcal/mol. In addition, the “stoichiometry N” value in assay [1] was 25.2 IlsA per ferritin shell; in assay [2], 24.9 IlsA per ferritin shell; in assay [3], 23.9 IlsA per ferritin shell; in assay [4], 23.8 IlsA per ferritin shell.

For B2, the Ka in assay [5] worked out at 2.07e+06 M⁻¹.
